Experimental data taken from publication doi:10.1101/459487 (bioRxiv, 2018).

What was measured:
[1] = molecular target: full-length GST-EFCAB9 (mouse) (mouse, UniProt Q9DAM2 1-216); assay: pull-down
[2] = molecular target: GST-EFCAB9^Mut2 (D72N/E160Q) (mouse, UniProt Q9DAM2 1-216, D72N | E160Q); assay: pull-down
GST-EFCAB9^Mut2 (D72N/E160Q), sequence (Q9DAM2 whole entry D72N/E160Q): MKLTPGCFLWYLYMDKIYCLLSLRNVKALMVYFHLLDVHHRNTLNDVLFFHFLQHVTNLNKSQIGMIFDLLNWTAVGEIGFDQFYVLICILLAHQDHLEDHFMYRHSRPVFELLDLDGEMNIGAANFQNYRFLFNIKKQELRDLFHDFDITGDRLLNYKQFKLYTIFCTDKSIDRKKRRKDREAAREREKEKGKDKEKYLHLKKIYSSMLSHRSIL

full-length GST-EFCAB9 (mouse), sequence (Q9DAM2 whole entry): as the sequence (Q9DAM2 whole entry D72N/E160Q) above, with N72D, Q160E counted along it

B1: 6xHis-tagged mouse CatSperζ fused to GB1 (natural protein)
chain: MEESVKPVPKHANHRRSSVRSSLYGDVRDLWSTATMSTANVSVSDVCEDFDEEGKSVRNRIRKYSQTISIRDSLNLEPEEIQQQARRELELCHGRSLEHGEDHEESETSLASSTSESLIFSLWKPHRTYWTEQQNRLPLPLMELMETEVLDILKKALITYRSTIGRNHFMTKELQGYIEGIRKRRNKRLYFLDQ
B1: binds [1]; binds [2].
